Test results published in patent US20260256879A1, “COMBINATION THERAPY WITH MEK INHIBITORS FOR THE TREATMENT OF CANCER” (FUNDACIÓ PRIVADA INSTITUT D'INVESTIGACIÓ ONCOLÒGICA DE VALL …, priority 2023, published 2026).

System: SkMel28 cells
Experiment: AlamarBlue cell viability, 5 days of treatment, alone or in combination; synergy by SynergyFinder 3.0 (ZIP)
Format: cell-based, human
Details: SkMel28, 5 days, FIG. 1A
Description: Omomyc in Combination with MEK Inhibitors Acts Synergistically in Decreasing the Viability of Melanoma Cancer Cells Two human melanoma cell lines with mutations in BRAF (BRAF^V600E) (SkMel28 and SkMel37) were used. Cells were plated in 96 well plates and treated on the following day with increasing concentrations of Trametinib and Omomyc, alone or in combination. After 5 days of treatment, media was removed and AlamarBlue™ Cell Viability Reagent was added to each well, incubated for 3 hours until metabolized, and fluorescence was read with a microplate reader using an excitation between 530-560 and an emission at 590 nm.
Synergy was evaluated using SynergyFinder 3.0 web application derived from Ianevsky A et al. Nucleic Acids Res. 2022; 50(W1):W739-W743.
Synergy scores can be interpreted as the average excess response due to drug interactions. Synergy scores close to 0 give limited confidence in synergy or antagonism. So, when the synergy scores are: less than −10, the interaction between two drugs is likely to be antagonistic. From −10 to 10, the interaction between two drugs is likely to be additive. Greater than 10, the interaction between two drugs is likely to be synergistic.

B1: Omomyc: Mutated bHLHZip domain of Myc (E61T, E68I, R74Q, R75N); tested polypeptide is SEQ ID NO: 4, N-terminal methionine, produced in E. coli (protein)
chain: MTEENVKRRTHNVLERQRRNELKRSFFALRDQIPELENNEKAPKVVILKKATAYILSVQAETQKLISEIDLLRKQNEQLKHKLEQLRNSCA
modifications: N-terminal methionine
effect of single agent on viability of the cells: reduces the viability
